Results from the nanobody polyreactivity screen of Harvey et al. (2022).

Test: yeast display, Sf9 membrane polyspecificity reagent, FACS + sequencing; frameworks hold sequencing errors
How it was run: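 A nanobody's polyreactivity label depends on the gate it was sorted from. Yeast display cells were stained with 10% biotinylated, detergent-solubilized Sf9 membrane reagent for 1 hour at 4 °C, enriched on streptavidin microbeads and sorted by FACS. The low and high (top ~1%) gates were set on anti-HA fluorescence for expression and streptavidin fluorescence for reagent binding.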

Sequence	polyreactivity (PSR sort gate)
QVQLVESGGGLVQAGGSLRLSCAASGSTFRYNAMGWYRQAPGKVRELVAAIDKRGDSTYADSVKGRFTISRDNAKNTVYLQMNSLKPEDTAVYYCAADSDSKYNYGFLWDTYEYWGQGTQVTVSS	low polyreactivity
QVQLVESGGGLVQAGGSLRLSCAASGRIFLYNAMGWYRQAPGKERELVASISSGDTTNYADSVKGRFTISRDNAKKTVYLQMNSLKPEDTAVYYCAADGQYSVIVKYDSWGQGTQVTVSS	low polyreactivity
QVQLVESGGGLVQAGGSLRLICAASGFTFSVYAMGWYRQAPGKERELVAAITWRGGSTYYADSVKGRFTISRDNAKNTVYLQMNSLKPEDTAVYYCAVLYPKYGKRYGYWGQGTQVTVSS	high polyreactivity
QVQLVESGGGLVQAGGSLRLSCAASGSIFRRYAMGWYRQAPGKERELVAAISFSGGSTYYADSVKGRFTISRDNAKNTVYLQMNSLKPEDTAVYYCAARSYAYSGDYWGQGTQVNVSS	high polyreactivity
QVQLVESGGGLVQAGGSLRLSCAASGYTFPLYAMGWYRQAAGKERELVADINIGGASTYYADSVKGRFTISRHNAKNTVYLQMNSLKPEESAVYYCAKEYYDGYFPTFDYDYWGQGTQVTVSS	low polyreactivity
QVQLVESGGGLVQAGGSLRLSSAASGFTFSHYAMGWYRQAPGKERELVAAITWSGGSTYYADSVKGRFTISRDNAKNTVYLQINSLKPEDTAVYYCAAESYLDGGEYWGQGTQVTVSS	high polyreactivity
QVQLVESGGGLVQAGGSLRLSCAASGRIFTHNAMGWYIQAPGKERELVAAITSGGRTTYADSVKGRFTISRENAKNTVYLQMISLKPVDTAVYYCAADDLLDYDYWGQGTQVTVSS	low polyreactivity
QVQLVESGGGLVQAGGSLRLSCAASGRIFRYYAKGWYRQATGKERELVAAISWSGGSTYYADSVKGRFTISRDNAKNTVYLQMHSLKPEDTAVYYCNAAVTQFTHRWRRRITFDYWGQGTQVTVSS	high polyreactivity
QVQLVESGGGLVQAGGSLRLSCAASGSTFRFYTMGWYRQAPGKERELVAAISGSGGSTYYADSVKGRFTISRDNAKNTVYLQMNSLKPEDTADYYCAADKSRNASHRGYWGQGTQVTVSS	low polyreactivity
QVQLVESGGGLVQAGGSLRLSCAASGRIFGQYAMGWYRQAPGKERELVASISRRGGSKNYADSVKGRFTISRDNAKNTVYLQMNSRKPEDTAVYYCATGRTWILQKLDYWGQGTQVPVSS	high polyreactivity
QVQLVESGGGLVQAGGSLRLSCAASGLTFWWYAMGWYRQAPGKERELVAAISSSGGSTYYADSVKGRFTISRDNAKNTVYLQMNSLKPEDTAVYYCAVASWDNYWDPYGYWGQGTQVTVSS	low polyreactivity
QVQLVESVGGLVQAGGSLRLSCAASGSTFHRNTMGWDRQAPGKERELVAGISLRGVRTYYADSVKGRFTISRDKAKNTVYLQMNSLKPEDTAVYYCAAGCPYTRNFKLGYWGQGTQVTVSS	high polyreactivity
QVQLVESGGGLVQAGGSLRLSCAASGLTILPNAMGWYRPAPGKERELVAAISWGDGNTYYADSVKGRFTISRDNAKNTVYLQMNSLKPEDTAVYYCAADVIKSRTYDYWGQGTQVTVSS	low polyreactivity
QVQLVESGGGLVQAGGSLRLSCAASGSIFKPYAMGWYRQAPGKERELVARISWSTGRTYYADSVKGRFTISRDNAKNTVYLQMNSLKPEDTEVYDCDAAVAVRYGYWGQGTQVTVSS	high polyreactivity
QVQLVESGGGLVQAGGSLRLSCAASGIIFANYAMGWYRQAPGKERELVAAITYSGGGTYYADSVKGRFTISRDNAKNTVYLQMNSLKPEDTAVYYSAAEYFYRWYYFPYGYWGQGTQVTVSS	high polyreactivity
HVQLVESGGGLVQAGGSLRLSCAASGSTFNRYAMGWYRQAPGKERELVAAITERGGSTYYADSVKGRFTISRDNAKNTVYLQMNRLIPEDTAVYYCAARSKYYRSTPFVSDYWGQGTQVTVSS	high polyreactivity
QVQLVESGGGLVQAGGSLRLSCAASGSTFDPYAMGWYRQAPGKERELVATINTGGDTHYADSVKGRFTISRDNAKNTVYLQMNSLKPEDTAVYYCNADYGKSRWIFDYWGQGTQVTVSS	low polyreactivity
QVQLVESGGGLVQAGGSLRLSCAASGFIFQANAMGWYRQAPGKERELVAAIDDGDSTYADSVKGRFTISRDNAKNTVYLQMNSLKPEDTAVYYCATRRNRSYDYWGQGTQVTVSS	low polyreactivity
QVQLVESRGGLVQAGGSLRLSCAASGRIFSIYAMGWYRQAPGKERELVAAITNGGGSTYYADSVKGRFTISRDNAKNTVYLPMISLKPEDTAVYYCAARSPGGKNTKYYWGQGTQVTVSS	high polyreactivity
QFQLVESGGGLVQAVVSLRLSCAASGSIFDIYDMGWYRQAPGKETELDAAIRSGDRTHYADSVKGRFTISRDNAKITVYLQMNSLKPEDTAVYYCAADRYIYLNREHDYWGQGTQVTVSS	low polyreactivity
QVQLVESGGGLVQAGCSLRLSCAASGYIFYIYAMGWYRQAPGKERELVAAITWSGDTTYYADSVKGRFTISRDNAKNTVYLQMNSLKPEDTAVYNCATYYYYPSWYLLYGEYNYWGQGTQVTVSS	low polyreactivity
QGQLEESGGCLVQAGGSLRLSCAASGIIFYKNAMGWYRPAPGKERELVAAISGSGGRTYYADSVKGRFTISRDNAKNTVYLQMNSLKPEVTAVSYCAARQPYRHGYESWGQGTQVTVSS	high polyreactivity

Sequence	polyreactivity (PSR sort gate)
QVQLVESGGGLVQAGGSLRLICAASGRIFYGYAMGWSRQAPGKERELVAAIRWSGGRTYYADSVKGRFTISRDNAKNTVYLQMNSLKPEATAVYYCAADYGYRSYVRFLSANYDYWGKGTQVTVSS	high polyreactivity
QVQLVESGGGLVQAGGSLRFSCAASGSTFPYYAMGLYRQAPGKERELVATITKRGGRTYYADSVKGRFTISRDNAKNTVYLQMISLKPEDTAVYYCAARYRFAVTYEYWGQGTQVTVSS	high polyreactivity
QVQLVESGGGLVQAGGSLRLSCAASGRTFWYYAMGWYRQAPGKERELVAAISTTGSSTYYADSVKGRFTISRDNAKNTVYLQMNSLKPEDTAVYYCAADSGAQYKYLWGYDYWGQGTQVTVSS	low polyreactivity
QVQLVESGGGLVQAGGSLRLSCAASGSTFYVYAMGWYRQAPGKERELVAAISRSGGSTYYADSVKGRFTISRDNAKNTVYLQMNSLKPEDTAVYYCAARGYSTYPMDYWGQGTQVTVSS	high polyreactivity
QVQLVESGGGLVQAGGSLRLSCDASGSTRIYAMGWYTQAPGKERELVAAISWTGGRTYYADSVKGRFTISRDNAKYTVYLQMNSLKPEDTAVYYCAAKGSGRDYWGQGTLVTVSS	high polyreactivity
QVQLVESWGGLVQAGGSLRLSCAASGSIFDFNGMGCYRQAPGKERELVAAISGGGGSTYYADSVKGRFTISRDNAKNTVYLQMNSLKPEDTAVYYCAAAYSTYRFIYEYWGQATQVTVSS	high polyreactivity
QVQLVESGGGLVQAGGSLRLSCAASGSTFRTYAMGWYRQAPGKERELVAAISFNGTRTYYADSVKGRFTISRDNAKNTVYLQMNSLKPEDTAVYYCAARGRGSFHQKGYYYWGQGTQVTVSS	high polyreactivity
QVKLVDSGGGLVQAGGSLRLSCAASGRIAVNAMGWYRQAPGKERELVAAISVSGGSTNYADSVKGRFTISRDNAKNTVYLQMNSLKPEDTAVYYCAARAFDPILRNDYSGQGTQVTVSS	low polyreactivity
QVQLVESGGGLDQAGGSLRLSCAASGFTFRKNAMGWYRQAPGKERELVAVISYSGGSTYYADSVNGRFTISRDSANNTVYLQMNSQKPEDSAVYYCNAVGWTRYWRIGWSAYYYWGQGTQVTVSS	high polyreactivity
QVQLVESGGGLVQAGGSLRLSCAASGFIFNVNAMGWYRQAPGKERELVAAITGGGGSTYYADSVKGRFTISRDNAKNTVYLQMNSLKPEDTAVYYCARGRTIRSSRTGGSWGQGTQVTVSS	high polyreactivity
QVQLEESGGGLVQAGGSLRLSCAASGSIFYSYAMGWYRQAPGKERELVAAINWSGGSTYYADSVKGRFTISRDNAKNTFYFQMNSLKPQDTAVYYCAADYGWGPIYDYWGQGTQVNVSS	low polyreactivity
QVQLVESGGGLVQAGGSLRLSCAASGRTFGLYAMGWYRQAPGKETELVAAISSSGGSTYYADSVKGRFTISRDNAKNTVYLQMNSLKPEDTAVYYCAKYRRVGYLYDYWGQGTQVTVSS	high polyreactivity
QVQLVESGGGLVQAGGSLRLSCAASGRTFYYAMGWYRQAPGKERYADSVKGRVTISRDNAKNTVYLQMNSLKPEETAVYYCAAKVPEPPSLDESDYWGQGTQVTVSS	low polyreactivity
QVQLGESGGGFVQAGGSLRLSCAASGSTFSYNAMGWYIQASGKESEFVAAISSSGGRTYYADSVKWRFTISRDYEKNTVYLQMKSLKPEDTAVYYCPAKSRLPTQGLGMYYWGKGTQVTVSS	high polyreactivity
QVQLVESGGGVVQAGGSLRLSCAASGSIFYSYAMGWYRQAPGKERELVAAISSSGTSTYYADSVKGRFTISRDNAKNTVYLQMNSLKPEDTAVYYCAARFYGTSYYRYNYWGQGTQVTVSS	high polyreactivity
QVQLVESGGGLVQAGGSLRLSCAASGNTFYANTMGWYRQAPGKERELVAAITVRGASTNYADSVKGSFTISRDNAKNTVYLQMNSLKPEDTAVYYCNAVGLRSPWHQDYLIRYDYRGQGTQVTVSS	low polyreactivity
QVQLVESGGGLVQAGGSLRLSCAASGSIFGWYAMGWYRQAPGKERELVAAISGSGGSTYYADSVKGRFTISRDTAKNTVYLQMNSLKPEDTAVYYCNAYRRVGTSEYWGQGTQVTVSS	high polyreactivity
QVQLVESGGGLVQAGGSLRLSCAASGIIFYSNAMGWARQAPGKETELVAGISKSGGSTYYADSVKGRFTISRDNAQNTVYLQMHSLKPEDTAVYYCAVRGGGRYRSWGYDYWGQGTQVTVSS	high polyreactivity
QVQLVESGGGLVQAGGTLRLSCAASGSTFVDYAMGWYRQAPGKERELVAGINGSGGSTYYADSVKGRFTISRDNAKNTVYLQMNSLKPEDTAVYYCAKDGSNRLALPAWDYNYWGQGTQVTVSS	low polyreactivity
QVQLVESGGGLVQAGGSLRLSCADSGRTIRGNAMGWYRQAPGKERELVAAITSSGGGTYYADSVKGRFTISRDNAKNTVYLQMNSLNPEDTAVFYGAAEYRDGYRFSYDYWGQGTQVTVSS	low polyreactivity
QVQLVESVGGLVQAGGSLRLSCAASGSTFRPYAMGWSRQAPGKERELVAAITGSGGSTYYADSVKGRFTISRDNAKNTVYLQMNSLKPEDTAVYYCNAVSTWRYYYWGQGTQVTVSS	high polyreactivity
